Experimental data from the Human Domainome abundance scans (Beltran et al. 2025).

B1: PDZ and LIM domain protein 2, residues 284 to 339; numbered along this chain, Q96JY6 (parent)
chain: HTCEKCSTSIANQAVRIQEGRYRHPGCYTCADCGLNLKMRGHFWVGDELYCEKHAR

Variants of: B1
Experiment: abundance fitness (aPCA) (normalised: wild type 0, dead -1); higher = more abundant; growth selection in yeast, the domain comes from the species named
Settings: Homo sapiens

Abundance fitness of substitutions, site by site:
P25: L 0.099, S 0.118, V -0.169, W -0.807, C -0.546, T -0.09
A11: F -1.16, G 0.017, S 0.196, L -0.827, D 0.321, N 0.351, Q -0.253, R -0.231, H -0.085, T -0.016, C -0.446, Y -0.643, P 0.118, M -0.521
H24: S -0.264, G -0.489, K -0.193, E -0.439, I -0.973, A -0.307, L -0.898, D -0.047, F -0.938, M -0.492, R -0.435, Q -0.186, P -0.582, W -0.788, N -0.345, C 0.309
R23: F -0.391, G -0.457, A -0.108, V -0.075, Q -0.509, E -0.318, P -0.111, H -0.302, K -0.315, N -0.173, M -0.317, T -0.125, D -0.486, I -0.69, Y -0.303, L -0.212, C -0.238, S -0.278, W -0.431
Y28: V -0.144, H -0.225, W 0.053, G -0.471, Q -0.246, E -0.548, A -0.076, T 0.116, K -0.434, P -0.752, F -0.364, L -0.262, M -0.13, N -0.294, D -0.772, I -0.452, R -0.473, C -0.187, S -0.179
Q18: L -0.077, D -0.032, G -0.088, V 0.008, N -0.248, R -0.062, C -0.087, I 0.228, K -0.141
